The values below come from patent publication US20150196666A1.

Test [1] deals with CD74 (invariant chain, Ii) (human) (UniProt P04233). As to the kind of experiment: cell binding assay on antigen-positive cells.
The target of test [2] is human trophoblast cell-surface antigen (TROP-2) (human) (UniProt P09758). As to the kind of experiment: cell binding assay on TROP-2-expressing cells.
Test [3] deals with CD22 (human) (UniProt P20273). As to the kind of experiment: flow cytometry, unconjugated antibody + FITC goat anti-human IgG, Raji cells; background in parentheses.
Test [4] has as its target CD22 (human) (UniProt P20273). The test is described as follows: flow cytometry, unconjugated antibody + FITC goat anti-human IgG, MN-60 cells; background in parentheses.
Test [5] concerns the target CD22 (human) (UniProt P20273). The test is described as follows: flow cytometry, unconjugated antibody + FITC goat anti-human IgG, Jeko-1 cells; background in parentheses.
Test [6] deals with CD22 (human) (UniProt P20273). As to the kind of experiment: flow cytometry, unconjugated antibody + FITC goat anti-human IgG, Ramos cells; background in parentheses.
Test [7] has as its target CD22 (human) (UniProt P20273). As to the kind of experiment: flow cytometry, unconjugated antibody + FITC goat anti-human IgG, REH cells; background in parentheses.
In test [8] the target is CD22 (human) (UniProt P20273). The test is described as follows: flow cytometry, unconjugated antibody + FITC goat anti-human IgG, WSU-FSCCL cells; background in parentheses.
The target of test [9] is CD22 (human) (UniProt P20273). The test is described as follows: flow cytometry, unconjugated antibody + FITC goat anti-human IgG, RS4;11 cells; background in parentheses.
Test [10] concerns the target CD22 (human) (UniProt P20273). The test is described as follows: flow cytometry, unconjugated antibody + FITC goat anti-human IgG, 697 cells; background in parentheses.
The target of test [11] is CD22 (human) (UniProt P20273). The test is described as follows: flow cytometry, unconjugated antibody + FITC goat anti-human IgG, Daudi cells; background in parentheses.
The target of test [12] is CD20 (human) (UniProt P11836). The test is described as follows: flow cytometry, unconjugated antibody + FITC goat anti-human IgG, Raji cells; background in parentheses.
Test [13] concerns the target CD20 (human) (UniProt P11836). The test is described as follows: flow cytometry, unconjugated antibody + FITC goat anti-human IgG, MN-60 cells; background in parentheses.
The target of test [14] is CD20 (human) (UniProt P11836). As to the kind of experiment: flow cytometry, unconjugated antibody + FITC goat anti-human IgG, Jeko-1 cells; background in parentheses.
The target of test [15] is CD20 (human) (UniProt P11836). As to the kind of experiment: flow cytometry, unconjugated antibody + FITC goat anti-human IgG, Ramos cells; background in parentheses.
In test [16] the target is CD20 (human) (UniProt P11836). As to the kind of experiment: flow cytometry, unconjugated antibody + FITC goat anti-human IgG, REH cells; background in parentheses.
Test [17] deals with CD20 (human) (UniProt P11836). As to the kind of experiment: flow cytometry, unconjugated antibody + FITC goat anti-human IgG, WSU-FSCCL cells; background in parentheses.
Test [18] deals with CD20 (human) (UniProt P11836). The test is described as follows: flow cytometry, unconjugated antibody + FITC goat anti-human IgG, RS4;11 cells; background in parentheses.
The target in test [19] is CD20 (human) (UniProt P11836). As to the kind of experiment: flow cytometry, unconjugated antibody + FITC goat anti-human IgG, 697 cells; background in parentheses.
Test [20] addresses CD20 (human) (UniProt P11836). The test is described as follows: flow cytometry, unconjugated antibody + FITC goat anti-human IgG, Daudi cells; background in parentheses.
The target in test [21] is human trophoblast cell-surface antigen (TROP-2) (human) (UniProt P09758). The test is described as follows: flow cytometry, surface binding on Capan-1 cells.
For test [22] the target is unchanged. As to the kind of experiment: flow cytometry, surface, NCI-N87 cells.
Test [23] deals with CD74 (invariant chain, Ii) (human) (UniProt P04233). The test is described as follows: flow cytometry, permeabilized Hs746T cells; background in parentheses.
The target is the same in test [24]. As to the kind of experiment: flow cytometry, permeabilized Hep-G2 cells.
Test [25] shares this target. The test is described as follows: flow cytometry, membrane-only CD74, Capan-1 cells.
Test [26] has the same target. As to the kind of experiment: flow cytometry, permeabilized Hs746T cells.
For test [27] the target is unchanged. As to the kind of experiment: flow cytometry, permeabilized Capan-1 cells.
Test [28] has the same target. As to the kind of experiment: flow cytometry, membrane-only CD74, Capan-1 cells; background (GAH-FITC only) in parentheses.
For test [29] the target is unchanged. As to the kind of experiment: flow cytometry, membrane-only CD74, HuH-7 cells; background (GAH-FITC only) in parentheses.
For test [30] the target is unchanged. As to the kind of experiment: flow cytometry, membrane-only CD74, A-375 cells; background (GAH-FITC only) in parentheses.
For test [31] the target is unchanged. The test is described as follows: flow cytometry, membrane-only CD74, Hs746T cells.
Test [32] shares this target. The test is described as follows: flow cytometry, membrane-only CD74, Hep-G2 cells.
For test [33] the target is unchanged. As to the kind of experiment: flow cytometry, permeabilized Capan-1 cells; background in parentheses.
For test [34] the target is unchanged. As to the kind of experiment: flow cytometry, membrane-only CD74, A-375 cells.
For test [35] the target is unchanged. As to the kind of experiment: flow cytometry, permeabilized Raji cells.
The target is the same in test [36]. The test is described as follows: flow cytometry, permeabilized A-375 cells; background in parentheses.
For test [37] the target is unchanged. As to the kind of experiment: flow cytometry, permeabilized NCI-N87 cells.
The target is the same in test [38]. The test is described as follows: flow cytometry, membrane-only CD74, Raji cells.
For test [39] the target is unchanged. As to the kind of experiment: flow cytometry, membrane-only CD74, Hep-G2 cells; background (GAH-FITC only) in parentheses.
Test [40] shares this target. The test is described as follows: flow cytometry, permeabilized A-375 cells.
Test [41] has the same target. The test is described as follows: flow cytometry, permeabilized Raji cells; background in parentheses.
The target is the same in test [42]. As to the kind of experiment: flow cytometry, membrane-only CD74, Hs746T cells; background (GAH-FITC only) in parentheses.
The target is the same in test [43]. The test is described as follows: flow cytometry, membrane-only CD74, HuH-7 cells.
Test [44] has the same target. The test is described as follows: flow cytometry, membrane-only CD74, NCI-N87 cells; background (GAH-FITC only) in parentheses.
Test [45] shares this target. As to the kind of experiment: flow cytometry, permeabilized HuH-7 cells; background in parentheses.
The target is the same in test [46]. The test is described as follows: flow cytometry, permeabilized Hep-G2 cells; background in parentheses.
The target is the same in test [47]. As to the kind of experiment: flow cytometry, membrane-only CD74, NCI-N87 cells.
Test [48] has the same target. As to the kind of experiment: flow cytometry, membrane-only CD74, Raji cells; background (GAH-FITC only) in parentheses.
Test [49] shares this target. As to the kind of experiment: flow cytometry, permeabilized NCI-N87 cells; background in parentheses.
For test [50] the target is unchanged. As to the kind of experiment: flow cytometry, permeabilized HuH-7 cells.
For test [51], the target named is CEACAM6 (human) (UniProt P40199). As to the kind of experiment: flow cytometry, surface, HuH-7 cells.
The target is the same in test [52]. As to the kind of experiment: flow cytometry, Hep-G2 cells.
Test [53] shares this target. The test is described as follows: flow cytometry, surface, NCI-N87 cells.

Sequence of CD74 (invariant chain, Ii) (human) (P04233 whole entry, change not shown): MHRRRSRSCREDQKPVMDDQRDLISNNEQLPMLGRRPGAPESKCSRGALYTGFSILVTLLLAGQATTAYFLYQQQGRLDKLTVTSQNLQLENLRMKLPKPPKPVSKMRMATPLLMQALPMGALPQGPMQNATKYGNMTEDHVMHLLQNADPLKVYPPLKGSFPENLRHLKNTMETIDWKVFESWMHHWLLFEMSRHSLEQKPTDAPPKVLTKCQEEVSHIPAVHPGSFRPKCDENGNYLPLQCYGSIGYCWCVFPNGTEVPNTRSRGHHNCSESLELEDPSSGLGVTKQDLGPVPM
Sequence of CD20 (human) (P11836 whole entry): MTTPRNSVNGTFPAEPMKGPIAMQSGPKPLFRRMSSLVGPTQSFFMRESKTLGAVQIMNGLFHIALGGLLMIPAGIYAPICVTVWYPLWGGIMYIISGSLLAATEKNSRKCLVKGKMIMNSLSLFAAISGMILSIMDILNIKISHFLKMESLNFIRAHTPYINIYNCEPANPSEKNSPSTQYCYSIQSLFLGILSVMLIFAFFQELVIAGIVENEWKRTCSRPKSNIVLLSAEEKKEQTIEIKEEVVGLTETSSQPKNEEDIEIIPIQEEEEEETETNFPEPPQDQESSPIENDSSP
Sequence of CEACAM6 (human) (P40199 35-320): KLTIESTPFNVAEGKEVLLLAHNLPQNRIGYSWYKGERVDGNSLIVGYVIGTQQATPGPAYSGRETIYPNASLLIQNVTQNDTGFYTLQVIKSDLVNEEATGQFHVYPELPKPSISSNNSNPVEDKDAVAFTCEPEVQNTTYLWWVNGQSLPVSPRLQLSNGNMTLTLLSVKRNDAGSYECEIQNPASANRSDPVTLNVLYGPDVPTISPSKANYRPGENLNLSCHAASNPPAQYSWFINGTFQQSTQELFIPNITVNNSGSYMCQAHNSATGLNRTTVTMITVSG
Sequence of human trophoblast cell-surface antigen (TROP-2) (human) (P09758 27-323): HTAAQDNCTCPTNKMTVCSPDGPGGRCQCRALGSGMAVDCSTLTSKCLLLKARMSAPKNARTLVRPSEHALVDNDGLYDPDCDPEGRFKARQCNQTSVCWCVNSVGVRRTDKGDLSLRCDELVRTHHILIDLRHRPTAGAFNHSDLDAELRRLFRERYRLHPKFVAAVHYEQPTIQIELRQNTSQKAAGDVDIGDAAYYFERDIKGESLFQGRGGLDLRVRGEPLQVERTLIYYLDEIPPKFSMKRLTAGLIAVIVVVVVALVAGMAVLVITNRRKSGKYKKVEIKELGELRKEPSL

milatuzumab-CL2E-SN-38 (antibody): the Kd in test [1] was 0.8 nM.

With “hRS7-CL2-SN-38 (hRS7 IgG conjugated to SN-38 through the CL2 linker) (antibody)”, the Kd in test [2] came to 1.2 nM. In other words, the single-digit nanomolar range.

As for “hRS7-CL2A-SN-38 (hRS7 IgG conjugated to SN-38 through the CL2A linker) (antibody)”, the Kd in [2] turned out to be 1.2 nM.

For “epratuzumab (hLL2), humanized anti-CD22 IgG1 (antibody)”, the median fluorescence in test [3] amounted to 45.9; in test [4] it was 10.3; in [5] it was 11.2; in [6], 40.8; in test [7] it was 22.9; in test [8] it was 7.7. Besides, the median fluorescence was found to be 23.3 in [9], 16 in test [10] and 145 in [11].

As to milatuzumab-CL2A-SN-38 (antibody), the equilibrium dissociation constant (Kd) in [1] came to 0.59 nM. This lies in the sub-nanomolar range.

As for “veltuzumab (hA20), humanized anti-CD20 IgG1 (antibody)”, the median fluorescence in [12] is 422; in test [13] it was 21.5; in [14], 605; in test [15] it was 620; in [16], 12.3; in test [17] it was 97.4. In addition, the results for the median fluorescence in test [18], in [19] and in [20] were 3.7, 6.9 and 815, respectively.

Turning to “humanized RS7 IgG (hRS7), anti-TROP-2 (anti-EGP-1) humanized antibody”, the MFI (surface) in [21] was determined as 237; in test [22], 795.

Take “milatuzumab (hLL1), humanized anti-CD74 IgG1 (antibody)”: the MFI (surface and cytoplasmic) in test [23] was found to be 144; in [33] it was 248; in test [36] it was 185; in [41] it was 143; in test [45], 114; in test [46], 156. Also, the MFI (surface and cytoplasmic) in test [49] is 220. Further, the MFI Ratio hLL1:bkgd (surface and cytoplasmic) in test [24] amounted to 31.2; in [26], 28.8; in test [27], 49.6; in test [35], 28.6; in test [37], 36.7; in test [40] it was 30.8. Further, in test [50], the MFI Ratio hLL1:bkgd (surface and cytoplasmic) is 28.5. Moreover, the MFI Ratio hLL1:bkgd (surface) in test [25] is 1.8; in test [31], 2.1; in test [32], 1.5; in test [34], 5.3; in test [38], 19.6; in test [43] it was 1.6. Moreover, in [47], the MFI Ratio hLL1:bkgd (surface) turned out to be 1.3. The MFI (surface) in [28] turned out to be 22; in test [29], 8; in [30], 16; in [39], 9; in test [42], 17; in [44] it was 5. For the same molecule, in test [48], the MFI (surface) was found to be 59. In addition, the Kd in test [1] came out at 0.77 nM.

B1: hMN-15, humanized anti-CEACAM6 IgG1 (antibody, from a related filing, V domains shown)
VH: QVQLVESGGGVVQPGRSLRLSCSSSGFALTDYYMSWVRQAPGKGLEWLGFIANKANGHTTDYSPSVKGRFTISRDNSKNTLFLQMDSLRPEDTGVYFCARDMGIRWNFDVWGQGTPVTVSS
VL: DIQLTQSPSSLSASVGDRVTMTCSASSRVSYIHWYQQKPGKAPKRWIYGTSTLASGVPARFSGSGSGTDFTFTISSLQPEDIATYYCQQWSYNPPTFGQGTKVEIKR
Consider B1, for which the results for the MFI (surface) in test [51] and in test [53] were 81 and 1120, respectively. Besides, the MFI in test [52] was 175.
